Assay results from publication PMC6969036 (Nature Communications, 2020).

B1: STAND-A36 (s3Flag-scFv-A36-HA) expressed in 293T cells (scFv, V domains shown)
VH: QVQLQQSGAELVRPGALVKLSCKASGFNIEDYYLHWVKQRPAQGLEWIGGIDPENGIAIYDSKFQGKASITADTSSNTAYLQLSSLTSEDTAVYYCATSEDSFDVWGQGTTVTVS
VL: DIELTQSPATMAASPGEKITITCSASSSISSNYLHWYQQKPGFSPKLLIYRTSNLASGVPARFSGSGSGTSYSLTIGTMEAEDVATYYCQQGSSIPLTFGAGTKLEIK
B2: scFv-T7-A36 (scFv-A36 fused with T7- and His-tags), purified from E. coli (scFv, V domains shown)
VH: QVQLQQSGAELVRPGALVKLSCKASGFNIEDYYLHWVKQRPAQGLEWIGGIDPENGIAIYDSKFQGKASITADTSSNTAYLQLSSLTSEDTAVYYCATSEDSFDVWGQGTTVTVS
VL: DIELTQSPATMAASPGEKITITCSASSSISSNYLHWYQQKPGFSPKLLIYRTSNLASGVPARFSGSGSGTSYSLTIGTMEAEDVATYYCQQGSSIPLTFGAGTKLEIK
notes: scFv-A36: VH-(Gly4-Ser)3 linker-VL; source: E. coli, purified under non-denaturing conditions (Probond nickel-chelating resin); not shown: T7, N-terminal, kept; His6, C-terminal, kept
B3: STAND-A36 (s3Flag-scFv-A36-HA), purified from E. coli (scFv, V domains shown)
VH: QVQLQQSGAELVRPGALVKLSCKASGFNIEDYYLHWVKQRPAQGLEWIGGIDPENGIAIYDSKFQGKASITADTSSNTAYLQLSSLTSEDTAVYYCATSEDSFDVWGQGTTVTVS
VL: DIELTQSPATMAASPGEKITITCSASSSISSNYLHWYQQKPGFSPKLLIYRTSNLASGVPARFSGSGSGTSYSLTIGTMEAEDVATYYCQQGSSIPLTFGAGTKLEIK
notes: scFv-A36: VH-(Gly4-Ser)3 linker-VL, from the spleen of Balb/c mice immunised with GST-Syt II-C2A (phage display); s3Flag-scFv-HA constructs were synthesised and codon-optimised (Genscript); also called s3Flag-A36-HA; purified STAND-A36

Experiments:
[1] = molecular target: Syt I (synaptotagmin I) expressed in 293T cells (UniProt P46096); test: cell-based or functional assay
Sequence of Syt I (synaptotagmin I) expressed in 293T cells (P46096 whole entry, the tested form may be a part): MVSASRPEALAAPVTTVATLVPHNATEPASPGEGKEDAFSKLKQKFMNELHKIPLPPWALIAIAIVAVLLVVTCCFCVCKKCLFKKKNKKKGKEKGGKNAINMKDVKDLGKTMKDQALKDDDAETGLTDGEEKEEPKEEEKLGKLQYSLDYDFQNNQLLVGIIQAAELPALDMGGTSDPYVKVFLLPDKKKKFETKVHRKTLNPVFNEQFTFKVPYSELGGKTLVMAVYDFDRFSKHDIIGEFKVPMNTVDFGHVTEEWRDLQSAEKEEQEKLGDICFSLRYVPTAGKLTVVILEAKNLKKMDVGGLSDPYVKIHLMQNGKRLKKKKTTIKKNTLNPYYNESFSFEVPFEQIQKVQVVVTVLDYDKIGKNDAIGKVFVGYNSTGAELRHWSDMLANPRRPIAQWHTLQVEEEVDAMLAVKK

[2] = molecular target: T1, GST-Syt I-C2A (C2A domain of synaptotagmin I fused to glutathione S-transferase) (Mus musculus (assumed), UniProt P46096); test: ELISA; GST-Syt I-C2A (0.25 pmol) coated on wells in PBS, 16 h 24 °C; blocked with 5% skim milk in PBS with 0.1% Tween 20; purified scFv (0.22-36 nM STAND-A36, 1.17-1800 nM scFv-T7-A36, 3.77-601 nM scFv-GFPA36) 2 h at 24 °C; detected with anti-Flag or anti-His; binding to GST wells subtracted; Kd from Hill-Langmuir fit; conditions: both partners purified
T1 construct: synaptotagmin I, C2A domain; its full-length Syt vectors are mouse; also called GST-C2A; source: purified

[3] = molecular target: T2, GST-Syt I-C2B (C2B domain of synaptotagmin I fused to GST) (Mus musculus (assumed), UniProt P46096); test: ELISA; purified STAND-A36 on the indicated GST-fused proteins (GST-C2A, GST-C2B, GST); absorbance, n = 3; conditions: both partners purified
T2 construct: synaptotagmin I, C2B domain; also called GST-C2B; source: purified
T2 sequence (P46096 whole entry, looked up, the tested form may be a part): as the sequence (P46096 whole entry, the tested form may be a part) above

Binder | basal dopamine release in the striatum of mice expressing STAND-A36 (microdialysis), inhibition relative to mice expressing STAND-M4 [1] | high potassium (60 mM)-induced dopamine release in cultured dopamine neurons infected with AAV1-STAND-A36, relative to STAND-M4 [1] | Kd [2] | binding result [3]
B1 | 55.3% | 79.3% |  | 
B2 |  |  | 341 nM | 
B3 |  |  | 12.2 nM | no binding
